The results in this text go back to PMC12269843 (2025).

The IC50 is the point on the concentration scale where inhibition reaches its midpoint. A higher IC50 goes with a need for much substance.

Where no end group is shown, it is not given here. [ ]: non-standard residue; d: D form. Cit = NC(=O)NCCC[C@H](N)C(=O)O

This test deals with HLA-DRB1*04:05 protein (human). Description: FP.

As for D[Cit]Y[Cit]LNYSLPTG [TNC1014,1016cit peptide], the IC50 was found to be 4.81 µM.
